The text below walks through data of CN117586402A (HEFEI TIANGANG IMMUNOLOGY PHARMACEUTICAL CO LTD, dated 2024).

This assay concerns the target T1, NKp80 on human primary T cells and NK cells (人PBMC中CD3+ T细胞和CD56+ NK细胞) (人 (human), UniProt Q9NZS2 1-231).
T1 construct: whole, on cells; also called 人原代T细胞和NK细胞
T1 sequence (looked up): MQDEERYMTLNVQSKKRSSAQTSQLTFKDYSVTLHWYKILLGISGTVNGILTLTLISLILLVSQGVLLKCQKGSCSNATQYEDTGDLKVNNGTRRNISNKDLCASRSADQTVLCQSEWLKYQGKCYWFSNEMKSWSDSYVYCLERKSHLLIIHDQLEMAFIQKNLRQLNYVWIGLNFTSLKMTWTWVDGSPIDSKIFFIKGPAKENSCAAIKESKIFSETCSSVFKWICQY
As to the kind of experiment: flow cytometry on human PBMC, CD3+ cells. For orientation: Flow cytometry measures light scatter and fluorescence of single cells or particles in a stream.

B1: 嵌合NKp80抗体(53G7) (antibody, human IgG1, V domains shown)
VH: EVQLQQSGPELVNPGASVKISCKTSGYTFTDYYMNWVKQSHGKSLEWIGDIHPNNGGTSYNQKFKGKATLTVDKSSSTAYMELRSLTSEDSAVYYCARDYGGTYTNWAQNYFDYWGQGTTLTVSS
VL: DIVQTQSPASLAVSLGQRATISCRASQSVSTPSYSYMHWYQQKPGQPPKLLIKYASNLESGVPARFSGSGSGTDFTLNIHPVEEEDTATYYCQHSWEIPWTFGGGTKLEIKA
notes: also called 53G7抗体; 抗人NKp80抗体53G7
Take B1: the binding result is listed as “binds”.
